This note sets out measurements from patent US7601803 (SCIL PROTEINS, dated 2009).

The assay deals with T1, BSA (UniProt P02769 25-607).
T1 construct: Unconjugated carrier protein used as the control antigen
The experiment in a line: concentration-dependent ELISA, BSA coated at 20 µg/ml, detected with tetra-His antibody. How it is done:
Specific binding of mutant 12A to the BSA-estradiol-17-hemisuccinate conjugate was assayed by carrying out an ELISA, with increasing concentrations of purified mutant 12A-His-Tag protein being used. Increasing amounts of gamma-II-crystalline wild-type (likewise with His-Tag) were used as control, and binding of both purified proteins to BSA was assayed. The concentration-dependant ELISA was carried out using NUNC-Tm plates. Antigen coating with the BSA-estradiol-17-hemisuccinate conjugate or with BSA was carried out at room temperature overnight. Coating was carried out with in each case 100 µl of antigen at a concentration of 20 µg/ml of PBS pH 7.6. After washing (2×PBS pH 7.6) and blocking the plates (3% Marvel/PBS at 37° C. for 2 h), in each case 1-13 µl of the protein stock solution (concentration 0.63 mg/ml) of purified Mu 12A or gamma-II-crystalline were introduced into a total 100 µl of reaction solution (PBS, 3% Marvel, x µl of protein) and incubated in the wells at 37° C. for 2 h. The secondary antibodies used were the tetra-His antibody from Qiagen in a dilution of 1:3000 and the anti-mouse POD antibody (Sigma) in a dilution of 1:2000. The antibodies were diluted with a 3% strength Marvel/PBS solution and 100 µl were added to the wells and incubated at 37° C. for in each case 1 h. […] No increase was detected using gamma-II-crystalline. […]
For orientation: ELISA stands for enzyme-linked immunosorbent assay.

T1 sequence (P02769 25-607 limits assumed): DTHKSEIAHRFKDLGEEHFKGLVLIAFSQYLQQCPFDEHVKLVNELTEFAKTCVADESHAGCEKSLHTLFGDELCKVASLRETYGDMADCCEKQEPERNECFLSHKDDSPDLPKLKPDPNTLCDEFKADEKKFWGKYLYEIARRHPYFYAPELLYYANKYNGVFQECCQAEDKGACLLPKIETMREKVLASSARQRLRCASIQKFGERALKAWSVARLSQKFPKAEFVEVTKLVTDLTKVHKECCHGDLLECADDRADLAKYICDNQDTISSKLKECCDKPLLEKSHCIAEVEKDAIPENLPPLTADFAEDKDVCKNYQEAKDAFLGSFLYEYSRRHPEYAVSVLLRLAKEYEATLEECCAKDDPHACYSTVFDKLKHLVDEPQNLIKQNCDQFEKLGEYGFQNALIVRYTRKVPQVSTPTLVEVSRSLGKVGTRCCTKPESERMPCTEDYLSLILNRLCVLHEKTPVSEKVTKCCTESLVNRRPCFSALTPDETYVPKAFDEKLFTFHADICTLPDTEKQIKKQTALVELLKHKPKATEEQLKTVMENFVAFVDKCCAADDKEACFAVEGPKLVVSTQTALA

B1: bovine gamma-II-crystalline wild-type, purified His-Tag protein after expression in pET-20b (other)
chain: MGKITFYEDRGFQGHCYECSSDCPNLQPYFSRCNSIRVDSGCWMLYERPNYQGHQYFLRRGDYPDYQQWMGFNDSIRSCRLIPQHTGTFRMRIYERDDFRGQMSEITDDCPSLQDRFHLTEVHSLNVLEGSWVLYEMPSYRGRQYLLRPGEYRRYLDWGAMNAKVGSLRRVMDFYSDPNSSSVDKLAAALEHHHHHH
notes: Starting protein used as the control, likewise with His-Tag; also called WT; gamma-B-crystalline
As to B1, the binding result is “no binding”.
